Measurements reported in paper PMC12421383, “Autophosphorylation of conserved yeast and human casein kinase 1 isozymes regulates Elongator-dependent tRNA modifications” (Nucleic Acids Research, 2025).
One block for each binder: values may come before it.

B3: full-length (FL) yeast Hrr25, nonphosphorylated (enzyme, Saccharomyces cerevisiae (budding yeast), UniProt P29295 1-494, looked up)
chain: MDLRVGRKFRIGRKIGSGSFGDIYHGTNLISGEEVAIKLESIRSRHPQLDYESRVYRYLSGGVGIPFIRWFGREGEYNAMVIDLLGPSLEDLFNYCHRRFSFKTVIMLALQMFCRIQYIHGRSFIHRDIKPDNFLMGVGRRGSTVHVIDFGLSKKYRDFNTHRHIPYRENKSLTGTARYASVNTHLGIEQSRRDDLESLGYVLIYFCKGSLPWQGLKATTKKQKYDRIMEKKLNVSVETLCSGLPLEFQEYMAYCKNLKFDEKPDYLFLARLFKDLSIKLEYHNDHLFDWTMLRYTKAMVEKQRDLLIEKGDLNANSNAASASNSTDNKSETFNKIKLLAMKKFPTHFHYYKNEDKHNPSPEEIKQQTILNNNAASSLPEELLNALDKGMENLRQQQPQQQVQSSQPQPQPQQLQQQPNGQRPNYYPEPLLQQQQRDSQEQQQQVPMATTRATQYPPQINSNNFNTNQASVPPQMRSNPQQPPQDKPAGQSIWL
notes: cloned into pFastBacHT A with a TEV cleavage site after the tag; also called FL Hrr25; Hrr25 WT; source: Trichoplusia ni High Five cells, purified (NiNTA, gel filtration)

Assays:
Experiment in all cases: pull-down; 20 μg GST-tagged bait mixed with equimolar Hrr25 variant, GST Sepharose 4B, 1 h at 4°C; 20 mM Tris pH 7.5, 150 mM NaCl, 0.5% Tween 20, 2 mM DTT, 2 mM MgCl2; three washes; SDS-PAGE and WB with Hrr25-specific antibodies
Conditions in all cases: both partners purified
[1] = biological target: T1, Hrr25 1-394, nonphosphorylated (Saccharomyces cerevisiae (budding yeast), UniProt P29295 1-394)
T1 construct: pETM11 with a TEV cleavage site after the tag; also called P/Q truncation; truncation variant lacking the P/Q-rich region; source: E. coli pRARE cells, purified (NiNTA, gel filtration)
T1 sequence (looked up): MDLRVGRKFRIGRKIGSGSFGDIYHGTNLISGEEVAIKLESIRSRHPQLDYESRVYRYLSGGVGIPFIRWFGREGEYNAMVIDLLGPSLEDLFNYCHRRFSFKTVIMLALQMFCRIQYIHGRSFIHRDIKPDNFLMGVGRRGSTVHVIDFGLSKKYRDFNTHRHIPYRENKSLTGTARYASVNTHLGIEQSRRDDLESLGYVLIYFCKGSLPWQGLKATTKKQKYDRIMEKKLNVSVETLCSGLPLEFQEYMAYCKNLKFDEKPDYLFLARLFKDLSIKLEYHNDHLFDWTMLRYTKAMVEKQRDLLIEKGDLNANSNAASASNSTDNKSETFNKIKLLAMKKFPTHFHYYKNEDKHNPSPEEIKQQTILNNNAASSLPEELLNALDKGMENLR

[2] = biological target: B3
GST-Elp1 1-734 = biological target: T2, GST-Elp1 1-734 (Saccharomyces cerevisiae (budding yeast), UniProt Q06706 1-734)
T2 construct: also called truncated form of GST-Elp1
T2 sequence (looked up): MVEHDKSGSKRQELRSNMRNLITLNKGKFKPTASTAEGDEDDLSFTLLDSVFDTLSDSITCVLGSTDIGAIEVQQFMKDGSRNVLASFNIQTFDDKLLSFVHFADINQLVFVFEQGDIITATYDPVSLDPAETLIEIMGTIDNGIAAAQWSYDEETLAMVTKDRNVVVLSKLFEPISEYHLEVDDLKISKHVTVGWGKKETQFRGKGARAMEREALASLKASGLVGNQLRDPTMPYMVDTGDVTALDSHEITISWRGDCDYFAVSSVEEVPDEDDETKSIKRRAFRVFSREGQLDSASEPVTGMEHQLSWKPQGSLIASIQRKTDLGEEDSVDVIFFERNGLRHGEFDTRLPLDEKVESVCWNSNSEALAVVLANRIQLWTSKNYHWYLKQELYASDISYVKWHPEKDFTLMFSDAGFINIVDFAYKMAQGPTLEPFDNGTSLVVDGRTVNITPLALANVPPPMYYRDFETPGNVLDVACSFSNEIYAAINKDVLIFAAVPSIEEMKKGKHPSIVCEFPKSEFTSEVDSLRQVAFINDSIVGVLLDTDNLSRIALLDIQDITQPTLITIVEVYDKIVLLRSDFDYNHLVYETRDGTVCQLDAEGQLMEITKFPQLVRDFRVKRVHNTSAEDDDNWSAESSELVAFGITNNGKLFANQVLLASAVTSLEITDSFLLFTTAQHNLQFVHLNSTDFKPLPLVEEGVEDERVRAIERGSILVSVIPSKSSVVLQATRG

FL GST-Elp1 = biological target: T3, FL GST-Elp1 (Saccharomyces cerevisiae (budding yeast), UniProt Q06706 1-1349)
T3 construct: Elp1, Elongator subunit of Saccharomyces cerevisiae, full length, expressed from the pETM30 vector; also called Elongator subunit Elp1
T3 sequence (looked up): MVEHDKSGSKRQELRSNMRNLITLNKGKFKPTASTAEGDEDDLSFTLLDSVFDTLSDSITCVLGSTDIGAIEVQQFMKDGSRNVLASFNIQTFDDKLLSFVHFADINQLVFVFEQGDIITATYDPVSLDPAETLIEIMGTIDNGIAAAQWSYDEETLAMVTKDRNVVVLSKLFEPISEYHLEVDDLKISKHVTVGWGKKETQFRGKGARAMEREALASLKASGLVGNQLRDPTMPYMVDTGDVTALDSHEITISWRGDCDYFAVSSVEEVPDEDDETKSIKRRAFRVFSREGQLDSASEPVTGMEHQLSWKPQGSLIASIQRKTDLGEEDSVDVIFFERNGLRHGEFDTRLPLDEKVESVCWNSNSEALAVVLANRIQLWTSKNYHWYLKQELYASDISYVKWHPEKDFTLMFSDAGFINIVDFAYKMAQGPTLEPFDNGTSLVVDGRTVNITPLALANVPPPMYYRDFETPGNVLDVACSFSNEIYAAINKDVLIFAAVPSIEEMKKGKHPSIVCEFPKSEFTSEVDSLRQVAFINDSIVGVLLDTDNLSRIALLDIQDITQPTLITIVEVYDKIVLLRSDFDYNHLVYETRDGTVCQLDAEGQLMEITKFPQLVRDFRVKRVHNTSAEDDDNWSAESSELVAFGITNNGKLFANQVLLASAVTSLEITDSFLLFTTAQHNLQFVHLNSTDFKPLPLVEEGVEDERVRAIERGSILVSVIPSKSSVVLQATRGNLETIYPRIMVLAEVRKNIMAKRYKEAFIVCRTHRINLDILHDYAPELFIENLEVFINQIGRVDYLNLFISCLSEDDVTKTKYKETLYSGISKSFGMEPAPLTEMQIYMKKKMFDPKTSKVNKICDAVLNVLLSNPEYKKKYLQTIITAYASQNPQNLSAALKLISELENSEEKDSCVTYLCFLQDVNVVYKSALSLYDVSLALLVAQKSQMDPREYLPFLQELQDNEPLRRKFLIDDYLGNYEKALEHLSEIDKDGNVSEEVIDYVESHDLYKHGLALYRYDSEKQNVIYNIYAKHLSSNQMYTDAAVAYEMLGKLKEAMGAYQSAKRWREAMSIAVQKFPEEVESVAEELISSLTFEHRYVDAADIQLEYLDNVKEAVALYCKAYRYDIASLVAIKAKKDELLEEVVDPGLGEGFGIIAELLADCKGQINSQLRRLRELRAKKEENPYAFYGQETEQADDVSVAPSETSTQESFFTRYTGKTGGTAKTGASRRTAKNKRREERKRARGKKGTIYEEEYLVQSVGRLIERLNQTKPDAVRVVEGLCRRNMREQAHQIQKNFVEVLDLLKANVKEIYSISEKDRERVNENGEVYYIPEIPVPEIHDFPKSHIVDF

- binding result [1]: binds
- binding result [2]: binds
B1: GST-tagged Sit4 (enzyme, Saccharomyces cerevisiae (budding yeast), UniProt P20604 1-311, looked up)
chain: MVSRGPDEWLETIKKCQALTENEMKQLCEMVKELLMEESNIQPVQTPVTVCGDIHGQFHDLLELFRTAGGFPDDINYIFLGDYVDRGYYSLETFTLLMCLKVKYPAKITLVRGNHESRQITQVYGFYEECLNKYGSTTVWKYCCQVFDFLTLAAIIDGKILCVHGGLSPEIRMLDQIRVLSRAQEVPHEGGFSDLLWSDPDNVEAWQVSPRGAGWLFGSKVAREFNHVNGLNLIARAHQLVMEGFKYHFPEKDVVTVWSAPNYCYRCGNVASVMKVDEDLEPTFKIFSAVPDDYIRESTANHNNQRAGYFL
notes: Sit4, phosphatase of Saccharomyces cerevisiae, expressed from the pETM30 vector; also called GST-Sit4; Sit4 phosphatase

- binding result (GST-Elp1 1-734): binds
B2: Hrr25 1-394, autophosphorylated (domain or fragment, Saccharomyces cerevisiae (budding yeast), UniProt P29295 1-394, looked up)
chain: MDLRVGRKFRIGRKIGSGSFGDIYHGTNLISGEEVAIKLESIRSRHPQLDYESRVYRYLSGGVGIPFIRWFGREGEYNAMVIDLLGPSLEDLFNYCHRRFSFKTVIMLALQMFCRIQYIHGRSFIHRDIKPDNFLMGVGRRGSTVHVIDFGLSKKYRDFNTHRHIPYRENKSLTGTARYASVNTHLGIEQSRRDDLESLGYVLIYFCKGSLPWQGLKATTKKQKYDRIMEKKLNVSVETLCSGLPLEFQEYMAYCKNLKFDEKPDYLFLARLFKDLSIKLEYHNDHLFDWTMLRYTKAMVEKQRDLLIEKGDLNANSNAASASNSTDNKSETFNKIKLLAMKKFPTHFHYYKNEDKHNPSPEEIKQQTILNNNAASSLPEELLNALDKGMENLR
modifications: autophosphorylation sites mapped by MS: the sites detected in full length Hrr25 (Thr27, Ser31, Ser143, Thr144, Ser181, Ser191, Ser198) and in addition Ser41, Ser44, Ser60, Ser153, Thr161, Ser236, Thr239, Ser242, Tyr266, Ser317, Thr326, Ser330, Thr346, Ser376
notes: source: E. coli pRARE cells, purified (NiNTA, gel filtration); incubated with 1 mM ATP for 1 h at 30°C

Binder: B3
- binding result (FL GST-Elp1): binds

- binding result (FL GST-Elp1): binds
B4: full-length (FL) yeast Hrr25, autophosphorylated (enzyme, Saccharomyces cerevisiae (budding yeast), UniProt P29295 1-494, looked up)
chain: MDLRVGRKFRIGRKIGSGSFGDIYHGTNLISGEEVAIKLESIRSRHPQLDYESRVYRYLSGGVGIPFIRWFGREGEYNAMVIDLLGPSLEDLFNYCHRRFSFKTVIMLALQMFCRIQYIHGRSFIHRDIKPDNFLMGVGRRGSTVHVIDFGLSKKYRDFNTHRHIPYRENKSLTGTARYASVNTHLGIEQSRRDDLESLGYVLIYFCKGSLPWQGLKATTKKQKYDRIMEKKLNVSVETLCSGLPLEFQEYMAYCKNLKFDEKPDYLFLARLFKDLSIKLEYHNDHLFDWTMLRYTKAMVEKQRDLLIEKGDLNANSNAASASNSTDNKSETFNKIKLLAMKKFPTHFHYYKNEDKHNPSPEEIKQQTILNNNAASSLPEELLNALDKGMENLRQQQPQQQVQSSQPQPQPQQLQQQPNGQRPNYYPEPLLQQQQRDSQEQQQQVPMATTRATQYPPQINSNNFNTNQASVPPQMRSNPQQPPQDKPAGQSIWL
modifications: autophosphorylation sites mapped by MS: phospho-Thr27, Ser31, Ser143, Thr144, Ser181, Ser191, Ser198, Ser438, Thr449, Thr453, Ser461, Ser470, Ser491
notes: Hrr25, casein kinase 1 of Saccharomyces cerevisiae, full length, after autophosphorylation with ATP; also called pHrr25; autophosphorylated FL kinase; source: Trichoplusia ni High Five cells, purified (NiNTA, gel filtration); incubated with 1 mM ATP for 1 h at 30°C
